The target in data set [1] is PxP(Mcp1ct)-VABct(1,944-2,635)-His6 (C. thermophilum). The experiment in a line: SEC; Superdex 200 gel filtration in buffer A (20 mM Hepes pH 7.8, 500 mM NaCl, 1 mM TCEP, 10% glycerol); monomer or dimer read from the elution profile. On the technique in general: In gel filtration, larger molecules generally elute earlier.
For data set [2] the target is unchanged. The experiment in a line: negative stain EM; class averages of purified constructs; monomer or dimer.
Data set [3] deals with the molecule itself. The experiment in a line: SEC; Superdex 200 gel filtration in buffer A (20 mM Hepes pH 7.8, 500 mM NaCl, 1 mM TCEP, 10% glycerol); monomer or dimer read from the elution profile.

In general, stoichiometry N refers to a count of units in the complex or per binding partner.

In the case of PxP(Mcp1ct)-VABct(1,944-2,635)-His6, the stoichiometry N in data set [1] and in data set [2] was 2 in each case.

B1: PxP(Mcp1sc)-VABsc(1,869-2,545)-His6 (other, S. cerevisiae, UniProt Q12106 2-20, looked up)
chain: IKLHEVPPEPVDPASLPHDKPYQLVNDTELDFDVWIQDKTTEDNKNEVVLLKANTSLPWEFEDWRSIREKLDIDKSKNILGVCVSGQNYKTIMNIDATTEGENLHVLSPPRNNVHNRIVCEARCDENNVKIITFRSTLVIENTTSTEIELLVDSKDPNKPSLKYAIKPHQSKSVPVEYAYDSDIRIRPASEDIYDWSQQTLSWKSLLSNQMSIFCSSKEDSNQRFHFEIGAKYDEREPLAKIFPHMKIVVSASMTIENLLPADINFSIFDKREEKRTDFLKTGESMEVHHISLDSFLLMSVQPLQDEASASKPSIVNTPHKSPLNPEDSLSLTLSGGQNLLLKLDYKNIDGTRSKVIRIYSPYIIMNSTDRELYIQSSLLNIAQSKILLENEKRYTIPKMFSFDKEDDKSNRARIRFKESEWSSKLSFDAIGQSFDASVRIKNKEQESNLGINISEGKGKYLLSKVIEIAPRYIISNTLDIPIEVCETGSMDVQQIESNITKPLYRMRNIVDKQLVLKFLGGDSNWSQPFFIKNVGVTYLKVLKNSRHKLLKIEILLDKATIFIRIKDGGDRWPFSIRNFSDHDFIFYQRDPRKVSDPYKDDQSNESSSRSFKPIFYRIPSKSIMPYAWDFPTAKEKYLVLESGTRTREVRLAEIGELPPLRLDKRSKDKPAPIVGLHVVADDDMQALVIVNYKAN
notes: Mcp1p of S. cerevisiae, Pro-X-Pro motif, residues 2-20; also called PXP-VABsc; source: E. coli BL21 (DE3), purified (Ni-NTA, Superdex 200)
B1: in data set [3], the “stoichiometry N” value is 2.

B2: PxP(Spo71sc)-VABsc(1,869-2,545)-His6 (other, S. cerevisiae, UniProt Q03868 380-400, looked up)
chain: SHLPFINILPPWPTELTEEERKPYQLVNDTELDFDVWIQDKTTEDNKNEVVLLKANTSLPWEFEDWRSIREKLDIDKSKNILGVCVSGQNYKTIMNIDATTEGENLHVLSPPRNNVHNRIVCEARCDENNVKIITFRSTLVIENTTSTEIELLVDSKDPNKPSLKYAIKPHQSKSVPVEYAYDSDIRIRPASEDIYDWSQQTLSWKSLLSNQMSIFCSSKEDSNQRFHFEIGAKYDEREPLAKIFPHMKIVVSASMTIENLLPADINFSIFDKREEKRTDFLKTGESMEVHHISLDSFLLMSVQPLQDEASASKPSIVNTPHKSPLNPEDSLSLTLSGGQNLLLKLDYKNIDGTRSKVIRIYSPYIIMNSTDRELYIQSSLLNIAQSKILLENEKRYTIPKMFSFDKEDDKSNRARIRFKESEWSSKLSFDAIGQSFDASVRIKNKEQESNLGINISEGKGKYLLSKVIEIAPRYIISNTLDIPIEVCETGSMDVQQIESNITKPLYRMRNIVDKQLVLKFLGGDSNWSQPFFIKNVGVTYLKVLKNSRHKLLKIEILLDKATIFIRIKDGGDRWPFSIRNFSDHDFIFYQRDPRKVSDPYKDDQSNESSSRSFKPIFYRIPSKSIMPYAWDFPTAKEKYLVLESGTRTREVRLAEIGELPPLRLDKRSKDKPAPIVGLHVVADDDMQALVIVNYKAN
notes: Spo71p of S. cerevisiae, Pro-X-Pro motif, residues 380-400; also called PXP-VABsc; source: E. coli BL21 (DE3), purified (Ni-NTA, Superdex 200)
For B2, the “stoichiometry N” value in data set [3] came to 2.

B3: PxP(Ypt35sc)-VABsc(1,869-2,545)-His6 (other, S. cerevisiae, UniProt P38815 2-22, looked up)
chain: SDKISFLPPEPIQLLDEDSTEKPYQLVNDTELDFDVWIQDKTTEDNKNEVVLLKANTSLPWEFEDWRSIREKLDIDKSKNILGVCVSGQNYKTIMNIDATTEGENLHVLSPPRNNVHNRIVCEARCDENNVKIITFRSTLVIENTTSTEIELLVDSKDPNKPSLKYAIKPHQSKSVPVEYAYDSDIRIRPASEDIYDWSQQTLSWKSLLSNQMSIFCSSKEDSNQRFHFEIGAKYDEREPLAKIFPHMKIVVSASMTIENLLPADINFSIFDKREEKRTDFLKTGESMEVHHISLDSFLLMSVQPLQDEASASKPSIVNTPHKSPLNPEDSLSLTLSGGQNLLLKLDYKNIDGTRSKVIRIYSPYIIMNSTDRELYIQSSLLNIAQSKILLENEKRYTIPKMFSFDKEDDKSNRARIRFKESEWSSKLSFDAIGQSFDASVRIKNKEQESNLGINISEGKGKYLLSKVIEIAPRYIISNTLDIPIEVCETGSMDVQQIESNITKPLYRMRNIVDKQLVLKFLGGDSNWSQPFFIKNVGVTYLKVLKNSRHKLLKIEILLDKATIFIRIKDGGDRWPFSIRNFSDHDFIFYQRDPRKVSDPYKDDQSNESSSRSFKPIFYRIPSKSIMPYAWDFPTAKEKYLVLESGTRTREVRLAEIGELPPLRLDKRSKDKPAPIVGLHVVADDDMQALVIVNYKAN
notes: Ypt35p of S. cerevisiae, Pro-X-Pro motif, residues 2-22; also called PXP-VABsc; source: E. coli BL21 (DE3), purified (Ni-NTA, Superdex 200)
As for B3, the “stoichiometry N” value in data set [3] was found to be 2.

The values are drawn from article PMC8978259, “Structural and biochemical insights into lipid transport by VPS13 proteins” (The Journal of Cell Biology, 2022).
